Source: publication PMC2777437

Tests used:
[1] = biological target: T1, RHD-CBFb complex (UniProt Q01196;Q13951 50-178;1-141); test: fluorescence anisotropy
[2] = biological target: T1, RHD-CBFb complex; test: fluorescence anisotropy; remark: listed apart in the source

T1 sequence (Q01196 50-178, chain 1 of 2): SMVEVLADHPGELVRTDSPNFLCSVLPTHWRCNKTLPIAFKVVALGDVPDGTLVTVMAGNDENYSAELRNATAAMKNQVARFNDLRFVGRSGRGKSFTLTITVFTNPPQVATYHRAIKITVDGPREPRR
T1 sequence (Q13951 1-141, chain 2 of 2): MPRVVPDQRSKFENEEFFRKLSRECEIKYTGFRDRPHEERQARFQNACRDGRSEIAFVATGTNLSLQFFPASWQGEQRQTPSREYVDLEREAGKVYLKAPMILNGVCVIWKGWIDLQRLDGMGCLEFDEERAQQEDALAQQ

Binder | Kd [1] | binding result [2]
GGUCCAGGCGCGUUAGCAAAACCGCGGAUC (structured_RNA, none) [Apt45A] | 162 ± 102 nM | 
ATTACCGGCGAGTTTTGAACCGCGTAAT (ssDNA) [DNA Apt28A] |  | no binding
AUUACCGGCGAGUUUUGAACCGCGUAAU (structured_RNA, none) [Apt28A] | 108 ± 34 nM | 
